In this data set the test system is c1ccc([C@H]2CO2)cc1. Put plainly: colorimetric periodate-coupled diol assay, A290, steady state. The settings on record: pH 8.0, 50 mM sodium phosphate, 25 °C, 3 mM sodium periodate. The data set is classed as biochemical, Streptomyces globisporus.

In general, Km refers to the substrate concentration at which the rate is half of its maximum. The term kcat/Km denotes the second-order rate constant that governs catalysis at low substrate concentration. As to SgcF (Streptomyces globisporus; Q237M), the Km was found to be 4.1 ± 0.8 mM and the catalytic efficiency (kcat/Km) is 780 M⁻¹ s⁻¹.

The record behind these values is paper PMC3849214.
